Assay results taken from patent publication US20190330316A1 (PROTHENA BIOSCIENCES, published 2019).
Ends that are not written are not given here.

Legend:
[1] = molecular target: T1, biotinylated peptide spanning amino acid residues 55-69 of SEQ ID NO:3 (human, also: biotinylated, position not given here); assay: ELISA, biotinylated peptides on streptavidin plate
T1 peptide: SLEDEAAGHVTQARM
Experimental: (§1) A range of overlapping biotinylated peptides spanning the entire 383aa 4RON human tau protein were used for mapping the murine 16G7 antibody. Additional peptides were used to model potential post-translational modifications of the C- and N-terminal ends of the protein.
(§2) Biotinylated peptides were bound to separate wells of a streptavidin-coated ELISA plate. The plate was blocked and treated with murine 16G7, followed by incubation with a horseradish peroxidase-conjugated anti-mouse antibody. After thorough washing, OPD was applied to the plate and allowed to develop. The plate was read at 450 nm absorbance. Background subtraction was performed with absorbance values from wells containing no primary antibody, and a threshold for positive binding was set to 0.2 absorbance units.

[2] = molecular target: T2, biotinylated peptide spanning amino acid residues 64-78 of SEQ ID NO:3 (human, also: biotinylated, position not given here); assay: ELISA, biotinylated peptides on streptavidin plate
T2 peptide: VTQARMVSKSKDGTG
Experimental: as §1, §2

[3] = molecular target: T3, 4R0N human tau (383 amino acids) (human, UniProt P10636 1-758, radio-iodinated (125I) in the precipitation screen); assay: precipitation of 125I-labeled tau by hybridoma supernatants
T3 construct: Purified from SF9 cells infected with a tau baculovirus construct; also called 4RON human tau; 4R0N tau
Experimental: Monoclonal antibody 16G7 was prepared according to a modification of the method of Kohler and Milstein (G. Kohler and C. Milstein (1975) Nature 256:495-497). Human tau containing all 4 microtubule binding repeats, and lacking the N-terminal splice variants (4R0N tau, 383 amino acids) was used in all injections and screening assays. Tau was purified from SF9 cells infected with a tau-containing baculovirus construct (J. Knops et al. (1991) J Cell Biol 115(5):725-33). Six week old ALI mice were injected with 100 μg of purified tau at two week intervals. Tau was emulsified in complete Freund's adjuvant for the first immunization and in incomplete Freund's adjuvant for all subsequent immunizations. Serum samples were taken three days after the third injection to assess the titer of these animals. The highest titer mouse was injected intravenously with 100 μg of tau in 500 μL of PBS two weeks after receiving its third injection. The myeloma fusion occurred three days later using SP2/0 as the fusion partner. Supernatants from wells containing hybridoma cells were screened for their ability to precipitate ¹²⁵I-labeled tau. Tau was radio-iodinated using immobilized glucose oxidase and lactoperoxidase according to the manufacturer's instructions (Bio-Rad). […] The isotypes of 16G7 was determined to be gamma 1 kappa.

Measured: binding result

T3 sequence (P10636 other isoform, or with tags, fused parts or gaps limits assumed): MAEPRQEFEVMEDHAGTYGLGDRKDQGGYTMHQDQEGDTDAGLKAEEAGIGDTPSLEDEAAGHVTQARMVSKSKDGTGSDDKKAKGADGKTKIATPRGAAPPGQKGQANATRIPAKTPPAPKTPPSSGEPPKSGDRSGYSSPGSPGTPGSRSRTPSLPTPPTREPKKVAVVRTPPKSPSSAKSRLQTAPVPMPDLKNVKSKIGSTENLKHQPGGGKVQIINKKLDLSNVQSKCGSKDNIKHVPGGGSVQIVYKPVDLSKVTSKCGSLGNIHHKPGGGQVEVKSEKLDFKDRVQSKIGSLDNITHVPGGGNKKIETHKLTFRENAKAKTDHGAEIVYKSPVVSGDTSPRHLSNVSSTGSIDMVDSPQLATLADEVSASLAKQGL

B1: murine 16G7 monoclonal antibody (antibody, V domains shown)
VH: QVQLQQPGSVLVRPGASVKLSCKASGYTFTSSWIHWAKQRPGQGLEWIGEIYPNSGNTNYNEKFKGKATLTVDISSSTAYVDLTSLTSEDSAVYYCARLGWLIPLDYWGQGTTLIVSS
VL: DIVLSQSPSSLAVSVGEKVTMSCKSSQSLLDGNDQKNYLAWYQQKPGQSPKLLMYWASTRESGVPDRFTGSGSGTDFTLTISSLKAEDLAVYYCQQFYDYPWTFGGGTKLEIKR
notes: also called mouse 16G7; m16G7
binds: all assays above
